Literature values in US20180071407A9, “SYSTEMS AND METHODS FOR INTRA-TARGET MICRODOSING (ITM)” (priority 2013, published 2018).

Details: known value used to choose sampling time points; cited from earlier work

insulin
half-life of insulin: 4 to 6 min
